Test results: patent US20210261685A1 (Alector, published 2021)
Substitutions are numbered along the chain they refer to. Blank lines part the entries; values can stand above or below the binder they belong to.

Experiments:
[1] = target: T1, human MerTK endogenously expressed on cells (SK-MEL-5 cells; human macrophages) (human, UniProt Q12866 21-999); assay: cell-based or functional assay
T1 sequence: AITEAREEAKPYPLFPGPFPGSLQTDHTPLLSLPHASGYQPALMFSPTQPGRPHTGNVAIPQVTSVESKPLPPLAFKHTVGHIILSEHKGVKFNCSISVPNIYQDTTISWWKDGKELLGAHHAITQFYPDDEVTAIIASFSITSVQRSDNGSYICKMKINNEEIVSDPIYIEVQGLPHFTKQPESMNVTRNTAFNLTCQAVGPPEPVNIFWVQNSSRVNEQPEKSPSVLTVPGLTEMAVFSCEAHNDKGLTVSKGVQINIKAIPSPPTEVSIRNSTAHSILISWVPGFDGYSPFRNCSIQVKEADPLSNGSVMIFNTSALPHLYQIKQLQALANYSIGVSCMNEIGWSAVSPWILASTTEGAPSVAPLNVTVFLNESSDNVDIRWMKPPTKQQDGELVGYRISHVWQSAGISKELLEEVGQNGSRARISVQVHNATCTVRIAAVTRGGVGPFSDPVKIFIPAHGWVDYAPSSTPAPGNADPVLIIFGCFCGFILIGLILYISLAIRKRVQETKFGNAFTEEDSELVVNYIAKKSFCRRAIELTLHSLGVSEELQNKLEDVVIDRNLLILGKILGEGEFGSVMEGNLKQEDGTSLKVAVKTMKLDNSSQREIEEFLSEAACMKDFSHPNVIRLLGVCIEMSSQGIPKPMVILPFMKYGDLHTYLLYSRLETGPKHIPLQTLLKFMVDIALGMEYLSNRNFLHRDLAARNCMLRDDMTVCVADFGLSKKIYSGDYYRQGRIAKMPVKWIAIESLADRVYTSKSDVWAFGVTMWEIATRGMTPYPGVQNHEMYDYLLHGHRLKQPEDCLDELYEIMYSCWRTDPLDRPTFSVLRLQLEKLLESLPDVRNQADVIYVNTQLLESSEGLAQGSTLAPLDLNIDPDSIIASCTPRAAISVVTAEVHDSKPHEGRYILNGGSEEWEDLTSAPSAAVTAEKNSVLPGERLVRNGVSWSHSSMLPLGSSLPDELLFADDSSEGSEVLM

[2] = target: T2, Recombinant human MerTK human Fc Chimera protein (R&D systems, Cat #391-MR-100) (human, UniProt Q12866 26-499, limits assumed); assay: competition ELISA, His-Gas6 on captured MerTK-Fc
T2 construct: Bought; also called recombinant human MerTK protein; MerTK-Fc
T2 sequence: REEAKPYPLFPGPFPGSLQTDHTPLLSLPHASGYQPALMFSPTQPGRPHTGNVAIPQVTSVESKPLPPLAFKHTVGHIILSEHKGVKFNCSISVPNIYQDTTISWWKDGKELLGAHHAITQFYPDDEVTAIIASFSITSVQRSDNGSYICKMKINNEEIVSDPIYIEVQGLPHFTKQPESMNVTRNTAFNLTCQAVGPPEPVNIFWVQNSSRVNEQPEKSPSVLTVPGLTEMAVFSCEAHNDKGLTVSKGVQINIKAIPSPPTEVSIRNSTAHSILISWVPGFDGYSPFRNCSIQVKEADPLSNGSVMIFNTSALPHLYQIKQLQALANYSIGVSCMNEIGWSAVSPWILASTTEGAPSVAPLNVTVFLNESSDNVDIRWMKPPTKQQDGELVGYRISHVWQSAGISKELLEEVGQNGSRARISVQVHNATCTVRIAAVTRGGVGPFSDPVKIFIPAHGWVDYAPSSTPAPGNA
Method: Rabbit anti-human IgG polyclonal antibody (Jackson ImmunoResearch, Cat #309-005-008) was captured to a high-protein binding plate at 2 μg/ml 4° C. overnight. After washing with 0.05% Tween20 in PBS three times, 5% BSA in PBS was added for 1 hour. Recombinant human MerTK human Fc Chimera protein (R&D systems, Cat #391-MR-100) was added at 2 μg/ml for 1 hour and the plates were then washed. Anti-MerTK antibodies were titrated to final concentration range of between 66.6 nM to 4 pM and then 40 μl of serially diluted antibody and 40 μl of His tag-conjugated recombinant Gas6 protein (R&D systems, Cat #885-GSB-050) at 3 μg/ml or His tag-conjugated recombinant ProS protein (R&D systems, Cat #9489-PS-100) at 20 μg/ml. After a further incubation for 1 hour, plates were washed and incubated for 1 hour with HRP-conjugated anti-6×His tag antibody (Abcam, Cat #ab1187). Plates were then washed and an HRP substrate (TMB) was used to develop the plates. After sufficient color change was observed, the reaction was stopped by adding 50 μl 2N H₂SO₄ and the OD was measured using a spectrophotometer (BioTek).
From these experiments, IC50 values [nM] were determined using OD450 values obtained from the dose-response curves analyzed with Prism software. Table 14 and Table 15 show IC50 values determined for anti-MerTK antibody blocking of Gas6 ligand binding and ProS ligand binding to MerTK. […] Dashes indicate lack of significant blocking; “n.a.” indicates data not available.

- Gas6-mediated pAKT activity, average IC50, human M2c macrophages [1]: 2.8 nM
B1: MTK-15 (antibody, human IgG1, V domains shown)
VH: QIQLVQSGPELKKPGETVKISCKASGYTFTNYGVHWVKQAPGKGLKWMGWINTYTGEPTYADDFKGRFAFSLETSASTAYLQINNLKNEDMATYFCARGNRYAYMDYWGQGTSVTVSS
VL: QIVLSQSPAILSASPGEKVTMTCRASSSVSYMHWYQQKSGSSPKPWIYATSNLASGVPARFSGSGSGTSYSLTISRVEAEDAATYYCQQWSSNPRTFGGGTKLEIK

- Gas6-mediated pAKT activity, average IC50, human M2c macrophages [1]: 1.28 nM
- IC50 [2]: 26 nM
B2: MTK-12 (antibody, human IgG1, V domains shown)
VH: QVQLQQSGPQLVRPGASVKISCKASGYSFTSHWMHWVKQRPGQGLEWIGMIDPSDGESRLNQKFKDKATLTVDKSSSTAYMQLSSPTFEDSAVYYCARGIYYYGITYAMDYWGQGTSVTVSS
VL: QIVLTQSPAIMSASPGEKVTMTCSASSSVSYMYWYQQKPRSSPRLLIYDTSNLASGVPVRFSGSGSGTSYSLTISRMEAEDAATYYCQQWSSYPLTFGAGTKLELK

- Gas6-mediated pAKT activity, average IC50, human M2c macrophages [1]: 19 pM
- IC50 [2]: 8.53 nM
B3: MTK-03 (antibody, human IgG1, V domains shown)
VH: DVQLQESGPGLVKPSQSLSLTCSVTGYSITSGYYWNWIRQFPGNTLEWMGYMSFDGDNKFNPSLKNRISITRDTSKNQFFLRLNSVTTEDTATYYCARGGYNYGSTEANWGQGTLVTVSA
VL: QIVLTQSPAIMSAFPGEKVTITCSASSSVNYMHWFQQKPGTSPKLWIYSTSNLASGVPARFSGSGSGTSYSLTISRMEAEDAATYYCQQRSSYPFTFGSGTKLEIK

- Gas6-mediated pAKT activity, average IC50, human M2c macrophages [1]: 0.371 nM
- IC50 [2]: 7.97 nM
B4: MTK-07 (antibody, human IgG1, V domains shown)
VH: B3 VH with A120T
VL: B3 VL with N30T, Y48F

- Gas6-mediated pAKT activity, average IC50, human M2c macrophages [1]: 1.48 nM
- IC50 [2]: 4.96 nM
B5: MTK-20 (antibody, human IgG1, V domains shown)
VH: QIQLVQSGPELKKPGETVKISCKASGYTFTNYGMTWVKQAPGKGLKWMGWINTYTGEPTYADDFKGRFALSLETSASTAYLQINNLKNEDTATYFCARGGGRLGLRPLDYWGQGTTLTVSS
VL: DIQMTQTTSSLSASLGDRVTISCRASQDINNYLNWYQQKPDGTVKLLIYYTSRLHSGVPSRFSGSGSGTDYSLTISNLEQEDIATYFCQQGNTLPWTFGGGTKLEIK

- Gas6-mediated pAKT activity, average IC50, human M2c macrophages [1]: 1.3 nM
- IC50 [2]: 4.22 nM
B6: MTK-18 (antibody, human IgG1, V domains shown)
VH: B5 VH with N31H, L70F, R102Q
VL: B5 VL with I21F, D28A, N30S

- Gas6-mediated pAKT activity, average IC50, human M2c macrophages [1]: 3.42 nM
- IC50 [2]: 14.5 nM
B7: MTK-17 (antibody, human IgG1, V domains shown)
VH: QIQLVQSGPELKKPGETVKISCKASGYTFTNFGMNWVKQAPGKGLKWMGWINTYTGEPTYADDFKGRFAFSLETSASTAYLQINNLKNEDTATYFCSRGAVLRAGAMDCWGQGTSVTVSS
VL: DIQMTQSSSYLSVSLGGRVTITCKASDHINNWLAWYQQKPGNAPRLLISGATSLETGVPSRFSGSGSGKDYTLSITSLQTEDVATYYCQQYWSTPRTFGGGTKLEIK

- Gas6-mediated pAKT activity, average IC50, human M2c macrophages [1]: 2.63 nM
B8: MTK-11 (antibody, human IgG1, V domains shown)
VH: QVQLKQSGPGLVQPSQSLSITCTVSGFSLTDYGVHWVRQSPGKGLEWLGVIWSSGTTDYNEAFISRLSISKDNSKSHVFFKMNSLQAIDTAIYYCARKGHDPYAMDYWGQGTSVTVSS
VL: QIVLTQSPAIMSASLGERVTMTCTASSSISSSYFHWYQQKPGSSPKLWIYSTSNLPSGVPARFSGSGSGTSYSLTISSMEAEDAATYYCHQYYRSPLTFGAGTKLELK

- Gas6-mediated pAKT activity, average IC50, human M2c macrophages [1]: 7.74 nM
- IC50 [2]: 6.32 nM
B9: MTK-16 (antibody, human IgG1, V domains shown)
VH: LIQLVQSGPELKKPGETVKISCKASGYTFTNHGMNWVKQDPGKGLKWMGWINTYTGEPTYADDFKGRFVFSMETSASAAFLQINNLKNEDTATYFCARKGVTAARYFDYWGQGTTLTVSS
VL: DIVMTQSPKFMSTSVGDRVSITCKASQNVRTAVAWYKKKPGQSPKALINLASNRHTGVPDRFTGSGSGTDFTLTISNVQSEDLADYFCLQHWNYPLTFGGGTKLEIK
